# From the supplement of paper PMC10567573
# ± gives the standard deviation.
# Experiment: protein stability index of a GFP-peptide fusion (GPS, HEK-293T) (PSI 1-6); higher = more stable
# Settings: c terminus: a fixed tail appended
# 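Also: 24-mer peptide tiles fused after GFP, lentivirally expressed, FACS-sorted into six equal bins by GFP/DsRed ratio, decoded by Illumina sequencing, PSI is the read-weighted mean bin number.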
Sequence,protein stability index (treatment: DMSO),"protein stability index (treatment: MLN4924 1 uM, 8 h)"
TLRPDQQLHIFNTLRSHLIDKGML [CDS2],2.14 ± 0.28,2.24 ± 0.13
GPLFNFDVHDDVRLLSDATVEKDE [FAM50A],5.23 ± 0.17,5.43 ± 0.11
QSKGHGRAVDWWALGILIFEMLSG [PRKX],2.58 ± 0.58,2.56 ± 0.36
LCKEMVPLAEQTPLTLQSQPKEPQ [ZSCAN9],5 ± 0.13,5.04 ± 0.24
VIRWIAHDTEIRKVHMKDVMSALW [GAN],2.38 ± 0.63,2.08 ± 0.2
PYFLFQHWATGYSKSSHPLIRSLF [SOAT1],2.46 ± 0.51,2.34 ± 0.74
EGSREHAFQITGVWDASRAPRGTP [PLEKHN1],4.34 ± 0.27,4.39 ± 0.26
VGLVTNQLSHIKAKIRAKIPGTGA [RTN2],2.79 ± 0.16,2.9 ± 0.11
APFLSQADDPDDGPVPGTPGLPGS [SPNS1],5.55 ± 0.34,5.43 ± 0.21
DIVWGKIHGFPWWPARVLDISLGQ [PWWP2B],2.7 ± 0.86,2.38 ± 0.42
YGAVELSGAGRRKNATRETTSTLK [IRX6],4.56 ± 0.38,4.52 ± 0.29
NGADVNIQSKDGKSPLHMTAVHGR [ANKRD44],4.44 ± 0.22,4.46 ± 0.11
CIQQILEAVLHCHQMGVVHRDLKP [CAMK2A],2.75 ± 0.32,3.03 ± 0.36
FISRTSIPNAASEEGDEDDWASNK [WEE1],4.3 ± 0.32,4.73 ± 0.31
DFLIHPPERSDLTLYLIVALATVS [PCDHGC5],2.75 ± 0.41,2.44 ± 0.25
QSAFLHLPLPEQIHKASATIIEPA [INTS4],3.45 ± 0.31,3.82 ± 0.1
KKKTKVLKQRTVIEMFKSITHSTV [EHMT1],2.44 ± 0.35,2.19 ± 0.47
PGGGRGALLDQIRQGIQLNKTPGA [WAS],5.3 ± 0.1,4.99 ± 0.47
SRRPLDEAVAGAEGREAPALVAAG [DENND6A],4.86 ± 0.35,5.19 ± 0.25
ALDEIKLLKCVRESDPSDPNKDMV [SRPK2],4.75 ± 0.23,4.54 ± 0.26
YEKKQTLGQNDTGFSCDGTANTFR [BTBD1],4.23 ± 0.3,4.15 ± 0.14
FPSAGQAQAAVQGPVGTDFKPLNS [ZNF207],3.67 ± 0.45,4.16 ± 0.4
VPAAGGPAPKRGYSSEMKTEDELR [AUH],5.53 ± 0.68,5.9 ± 0.071

Sequence,protein stability index (treatment: DMSO),"protein stability index (treatment: MLN4924 1 uM, 8 h)"
AFLKLAKQRSVCTWGKNKPGIGAV [FAN1],2.76 ± 0.4,2.3 ± 0.48
AELLIFSVPIVYEKYKTQIDHYVG [RTN3],2.65 ± 0.77,2.61 ± 0.56
PANSETSDLTLYLVVAVAAVSCVF [PCDHGA10],2.69 ± 0.61,2.59 ± 0.54
DKLRALKSQRQPRTSPSCAFRSDD [CDC14A],4.14 ± 0.23,4.15 ± 0.11
MDGATLCNCALEELRLVFGPLGDQ [ELF3],2.33 ± 0.27,2.4 ± 0.68
RRDPSIPIYGLRQSILLNTRLQDC [C22orf31],2.74 ± 0.55,2.37 ± 0.31
HRMVVKIGDFGISKILSSKSKAYT [NEK8],2.33 ± 0.084,2.14 ± 0.12
SLSAGEKPGFLAPRDLPKHTPLIS [RASAL3],3.56 ± 0.23,3.65 ± 0.32
EMAEQLMTLAYDNGINLFDTAEVY [KCNAB2],2.3 ± 0.44,2.44 ± 0.29
IELDRTIMPDGTIVTTVTTVQSRP [C2CD2L],2.1 ± 0.14,2.09 ± 0.23
EEFIATIRAAKGLDQALKEGGKLP [ZC2HC1A],3.98 ± 0.22,3.93 ± 0.16
SAVVGDVLVLTKPLGTQVAVNAHQ [SEPHS2],2.95 ± 0.3,3.1 ± 0.31
LYPREGKYNHAACFGLQPGCLLPD [NLN],2.96 ± 0.33,3.1 ± 0.44
LPLLSPKFLVGTVGSDPLIKSDEE [KLHL20],4.33 ± 0.051,4.43 ± 0.073
LQSAPDVKGRVRCLTAGPEVAAQL [ZSWIM9],3.51 ± 0.28,3.6 ± 0.058
VHHLPLSTEKVVQETVLVEERRVV [EPB41L3],4.3 ± 0.14,4.43 ± 0.27
GHIILNSMHKYQPRLHIVKADENN [TBX5],2.82 ± 0.48,2.95 ± 0.018
RKLSLKGHNDWVMDVAISNNKKWI [WDR88],2.69 ± 0.42,2.39 ± 0.29
ESLKVIGRGAFGEVRLVQKKDTGH [STK38L],4.69 ± 0.17,4.63 ± 0.19
NVEDASHEEVVEKVKKSGSRVMFL [PDZK1],4.45 ± 0.2,
KKTVHYYAELGQCSVFPATDAPEQ [PLK2],3.6 ± 0.27,3.64 ± 0.31
WNDFLMCYSSRPLLCWSVWWALST [SLC19A2],3.5 ± 0.3,3.32 ± 0.46
RQWPTKSQTDRGASAGKRRCFWLG [SDE2],2.9 ± 0.24,3.19 ± 0.58

Sequence,protein stability index (treatment: DMSO),"protein stability index (treatment: MLN4924 1 uM, 8 h)"
SARYLEAALRLHRLLRDSEAFCHA [P3H4],2.51 ± 0.23,2.07 ± 0.2
LLDLQPDFSSGGAAAAAAPAPPPP [SNAP91],4.68 ± 0.23,4.77 ± 0.22
GTGLVLDEQLNEFHCLWDDSFPEG [HDAC6],4.12 ± 0.34,3.96 ± 0.16
FSGDGEYIVAGSARQHALYIWEKS [RBBP5],2.59 ± 0.32,2.57 ± 0.32
VPECRLAEDLGNLWENTRFTDCSF [SPOPL],2.74 ± 0.34,3.21 ± 0.44
SFTLADVSLAVTLHRLKFLGFARR [GDAP1],2.5 ± 0.64,2.33 ± 0.33
IVTKFYQLSATGQKLYVRLFQRKL [FAN1],3.6 ± 0.98,2.57 ± 0.51
FEEFLVMMVRQMKEDAKGKSEEEL [TNNC2],3.48 ± 0.37,3.28 ± 0.35
TKLLSGSYDCTVKLWDPVDGSVVR [WDR88],3.1 ± 0.33,3.19 ± 0.26
AEEPNAAVPDEIPPLEGDEDASRM [HSP90AB1],5.74 ± 0.15,5.65 ± 0.15
TNVRLQPAATWNLEEKRLTWRLPD [FCHO1],3.27 ± 0.32,3.34 ± 0.24
RESFTSRQKTSGPSVIQEIHQESG [C10orf62],4.94 ± 0.099,5.02 ± 0.24
MVPISKQPKEKIQAIIESCSRQFP [NOL4L],3.34 ± 0.11,3.38 ± 0.47
MWAHSMTVQDYQDLIDRGWRRSGK [ATE1],3.11 ± 0.14,3.27 ± 0.24
PVDPDSQADTVHSNPELDVLLLGS [DNAAF3],4.95 ± 0.11,5 ± 0.19
RVEESGSKKEGKRQGPKEPPRKSG [PBXIP1],5.33 ± 0.17,5.33 ± 0.48
AEAGHVDICHMLVQFCRLGSPRSR [EHMT1],2.3 ± 0.17,2.37 ± 0.34
QQLYYTEADYEDDSKIAFLMQLQD [IQUB],3.45 ± 0.54,3.48 ± 0.51
EMREQYEAMAEKNRRDVEAWFFSK [KRT15],3.85 ± 0.13,3.88 ± 0.39
DMCMKVPDDPEHLAARRQWRDECL [CRYL1],4.47 ± 0.22,4.56 ± 0.2
NELDSGFRLLNLKNDSLRKRYDGL [TSN],3.21 ± 0.28,3.43 ± 0.36
QALSNVPPLRNYFLEEDNYKNIKR [USP39],3.77 ± 0.28,4.18 ± 0.48
DTTRVENLIKSENYGKILVEKNEH [R3HDM1],4.46 ± 0.089,4.4 ± 0.1

Sequence,protein stability index (treatment: DMSO),"protein stability index (treatment: MLN4924 1 uM, 8 h)"
RFCCCVAVIYLGYCFCGWIVLGPY [MCOLN1],3.41 ± 0.26,3.28 ± 0.48
RLIATKNPEEIRGGGLLKYSNLLV [TENT5C],2.44 ± 0.35,2.26 ± 0.26
PPRGPQQLSSFGSVDWLSQSSCSG [VENTX],3.77 ± 0.56,3.96 ± 0.34
HSVLQIRYSGKILKNNETLVQHGV [IQUB],2.09 ± 0.035,2.31 ± 0.28
CLAHLGEKVSQELKEPLHKALQML [BCL2L13],2.26 ± 0.28,2.16 ± 0.26
WFFLQSELKKLKNLEGNELQRHAD [FUT8],2.56 ± 0.34,2.71 ± 0.41
AIAWCLRNEGVSSVLLGASNADQL [KCNAB2],2.23 ± 0.27,2.1 ± 0.13
NPLIASSFSLVKLVLRRQLKNKCC [C22orf31],2.25 ± 0.35,2.18 ± 0.32
GRSREELDELTGEVAGGGTPLLIA [FEM1A],4.6 ± 0.26,4.77 ± 0.26
GGYAIAVVLLQGAELLLAARLLGA [TSPAN10],2.81 ± 0.53,2.96 ± 0.32
QSVSYSKLLSVIVWMLMLLLAVPN [P2RY14],3.24 ± 0.27,3.17 ± 0.49
DDLTVVDAASLRRQIIKLNRRLQL [MFF],2.49 ± 0.27,2.9 ± 0.65
FKHILRTEGAFGLYRGLAPNFMKV [SLC25A25],2.18 ± 0.31,2.29 ± 0.32
VEAMYCYLRCIQSEVSFEGAYGNL [SMG5],3.13 ± 0.35,3.12 ± 0.63
HQEAEMAQNAVRLHYGLPVVVKLL [CTNNB1],2.58 ± 0.18,2.62 ± 0.21
NPEVGIFVSIAQSEQESLLQQAQA [SMG5],4.09 ± 0.3,4.23 ± 0.24
GARLGGFNFVSTPKCSCGQLAAVH [RNF180],2.36 ± 0.55,2.54 ± 0.21
YQCPDQMARNPAAIDMFIIGATFT [FBXO3],3.02 ± 0.48,2.51 ± 0.77
KDAYVQKLVKVCNGHDCWSLISLS [TENT5D],2.43 ± 0.41,2.14 ± 0.26
ISEAFSQRVGFGDDFDEDELMAEL [CHMP4C],4.86 ± 0.32,5.07 ± 0.2
AKKFMWRDSFMRHRGHCERRHRLG [ZBTB22],2.94 ± 0.23,3.1 ± 0.41
